Measured values taken from article PMC12656920.

Columns and labels:
PV-3C main protease [1] = molecular target: T1, PV-3C main protease (Poliovirus, UniProt P03300 1566-1748); assay: NMR (SOFAST-HMQC CSP); 3C:RNA 1:0.5; details: protein: recombinant; tags: SUMO tag cleaved by ULP-1; 15N-labeled for NMR
PV-3C main protease [2] = molecular target: T1, PV-3C main protease; assay: NMR (SOFAST-HMQC peak loss); details: protein: recombinant; tags: SUMO tag cleaved by ULP-1; 15N-labeled for NMR

T1 sequence (P03300 1566-1748): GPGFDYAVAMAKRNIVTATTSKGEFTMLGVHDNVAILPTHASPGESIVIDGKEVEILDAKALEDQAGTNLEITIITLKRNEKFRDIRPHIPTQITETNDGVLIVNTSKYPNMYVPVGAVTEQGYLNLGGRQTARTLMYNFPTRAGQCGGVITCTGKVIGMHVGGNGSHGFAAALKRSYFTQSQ

Binder	binding result (PV-3C main protease [1])	binding result (PV-3C main protease [2])
GGCGGCGUACUCCGG (ssRNA) [RNA-1]	binds	
CAUACUGUUGUAGGGGAA (ssRNA) [RNA-2]		binds
